The numbers were not newly measured in publication PMC11811815, which cites them from elsewhere.

This series deals with Usp18 (Mus musculus) (UniProt Q9WTV6).
Chain of UniProt Q9WTV6 (Q9WTV6 whole entry): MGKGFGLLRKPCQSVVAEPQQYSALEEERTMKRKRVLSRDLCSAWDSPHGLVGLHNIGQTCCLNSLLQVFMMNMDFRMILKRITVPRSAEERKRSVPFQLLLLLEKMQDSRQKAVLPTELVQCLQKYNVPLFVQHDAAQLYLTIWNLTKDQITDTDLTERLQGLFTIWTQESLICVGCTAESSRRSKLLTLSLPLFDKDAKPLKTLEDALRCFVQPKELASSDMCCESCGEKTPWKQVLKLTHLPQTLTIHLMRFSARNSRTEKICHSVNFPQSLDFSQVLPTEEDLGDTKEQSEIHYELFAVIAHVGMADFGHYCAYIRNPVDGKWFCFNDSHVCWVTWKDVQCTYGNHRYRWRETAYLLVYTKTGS

For the substance Isg15 (from UniProt Q64339), the Kd was 1.3 µM.

As a reminder, the Kd is the concentration at which binding is half-saturated.
